Entries after “also recorded” stand apart in the source; their conditions may differ.
Legend:
streptavidin = streptavidin (Streptomyces avidinii, UniProt P22629); conditions: biotin mimicking peptide binding streptavidin; read-out: affinity; cited from earlier work
[1] = system: SupT1 cells engineered to express CD33; experiment: Activation of TetCAR BW5 T-cells challenged with SupT1 cells expressing CD33; format: cell-based
From the text: A bicistronic construct was expressed in BW5 T cells as a single transcript which self-cleaves at the 2A site to yield a signalling component which comprises TiP fused via a flexible linker to the endodomain of CD3-Zeta; and a receptor component which comprises a CD33 recognizing scFv, a spacer derived from the Fc domain of IgG1, a CD4 derived transmembrane and intracellular domain; and TetR (FIG. 19a). A control was also expressed which was identical except that TiP was absent from the signalling component (FIG. 19b).
The BW5 T-cells were challenged with wild-type SupT1 cells or SupT1 cells engineered to express CD33 in the absence of tetracycline or in the presence of increasing concentrations of tetracycline.
Control TetCAR which lacks the TiP domain was also transduced into BW5. Once again, these T-cells were challenged with wild-type SupT1 cells or SupT1 cells engineered to express CD33 in the absence or in the presence of increasing concentration of Tetracycline.

CD22 [2] = target: T1, CD22 (Homo sapiens, UniProt P20273); experiment: SPR (Biacore T200), scFv-Fc captured on anti-IgG CM5 chip, interaction partner protein injected, 1:1 Langmuir fit
CD22 [3] = target: T1, CD22; experiment: Biacore affinity determination of CD22 binders; format: binding; conditions: scFv format, FIG. 6, result in words
Procedure: A CD19-binder (CD19ALAb) was identified, humanised and the binding affinities of both murine and humanised IgGs and scFvs were identified and compared with the “gold-standard” anti-CD19 binder, fmc63. In parallel, and a CD22-binder (CD22ALAb) was identified, humanised and the binding affinities of both murine and humanised IgGs and scFvs were identified and compared with the “gold-standard” anti-CD22 binder, M971.
Experiments were performed on a Biacore T200 instrument using HBS-P as running and dilution buffer. BIAevaluation software Version 2.0 was used for data processing. For binding kinetics, mouse anti-human IgG or goat anti-mouse IgG was covalently coupled to a CM5 Sensor Chip. IgG or scFv-Fc proteins were captured, and various concentrations of interaction partner protein injected over the flow cell at a flow rate of 30 μl/min. Kinetic rate constants were obtained by curve fitting according to a 1:1 Langmuir binding model. Bulk refractive index differences were subtracted using a blank control flow cell in which capture antibody had been immobilized to the same level as the active surface. A double reference subtraction was performed using buffer alone.

CD19 (human) = CD19 (human) (UniProt P15391); experiment: SPR (Biacore T200), scFv-Fc captured on anti-IgG CM5 chip, interaction partner protein injected, 1:1 Langmuir fit
Chain of CD19 (human) (P15391 20-291 limits assumed): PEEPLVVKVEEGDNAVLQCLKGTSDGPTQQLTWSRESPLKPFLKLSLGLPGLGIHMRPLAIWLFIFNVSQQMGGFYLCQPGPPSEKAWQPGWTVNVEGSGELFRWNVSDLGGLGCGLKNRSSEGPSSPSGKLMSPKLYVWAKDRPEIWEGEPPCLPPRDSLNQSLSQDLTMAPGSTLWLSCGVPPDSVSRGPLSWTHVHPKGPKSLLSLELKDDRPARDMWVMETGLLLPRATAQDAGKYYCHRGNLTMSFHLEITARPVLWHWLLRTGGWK

Chain of streptavidin (P22629 37-163 limits assumed): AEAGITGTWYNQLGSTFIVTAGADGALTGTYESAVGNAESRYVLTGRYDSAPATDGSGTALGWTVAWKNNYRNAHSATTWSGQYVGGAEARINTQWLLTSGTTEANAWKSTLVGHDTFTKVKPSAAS

With “Biotin mimicking peptide DVEAWLDERVPLVET (SEQ ID NO: 30) (Biotin mimicking peptide, long nanotag)” as the molecule, how does the Kd (streptavidin) read?
Its Kd is 3.6 nM.

Which Kd (streptavidin) does the source give for “Biotin mimicking peptide WRHPQFGG (SEQ ID NO: 32) (Biotin mimicking peptide, streptag)” here?
Its Kd is 72000 nM.

With “Biotin mimicking peptide DVEAWLGAR (SEQ ID NO: 31) (Biotin mimicking peptide, short nanotag)” as the molecule, how does the Kd (streptavidin) read?
The Kd was 17 nM.

For “Biotin mimicking peptide CHPQGPPC (SEQ ID NO: 35) (Biotin mimicking peptide, ccstreptag)”, which Kd (streptavidin) is on record?
The Kd was 230 nM.

Which “concentration of tetracycline at which activation is fully inhibited” value [1] does the source give for `CN(C)[C@@H]1C(O)=C(C(N)=O)C(=O)[C@@]2(O)C(O)=C3C(=O)c4c(O)cccc4[C@@](C)(O)[C@H]3C[C@@H]12` [tetracycline, reference compound] here?
The value was 100 nM.

B1: Humanised CD22ALAb scFv (scFv, part only; not given: Fc part and VH-VL linker, not shown: another chain or arm of the molecule; a dimerising Fc or GST; small tags and cut ends)
scFv: EVQLVESGAEVKKPGSSVKVSCKASGYTFTNYWINWVRQAPGQGLEWIGNIYPSDSFTNYNQKFKDRATLTVDKSTSTAYLELRNLRSDDTAVYYCTRDTQERSWYFDVWGQGTLVTVSSDIVMTQSPATLSVSPGERATLSCRSSQSLVHSNGNTYLHWYQQKPGQAPRLLIYKVSNRFSGVPARFSGSGSGVEFTLTISSLQSEDFAVYYCSQSTHVPWTFGQGTRLEIK
With B1 as the molecule, how does the Kd (CD22 [2]) read?
The Kd was 32 nM.

What about the koff (CD22 [2]) of the same molecule?
Its koff is 0.00226 s⁻¹.

What about the kon (CD22 [2]) of the same molecule?
Its kon is 68300 M⁻¹ s⁻¹.

B2: humanised CD22ALAb: Humanised CD22ALAb scFv, SEQ ID No. 26 (protein)
scFv: EVQLVESGAEVKKPGSSVKVSCKASGYTFTNYWINWVRQAPGQGLEWIGNIYPSDSFTNYNQKFKDRATLTVDKSTSTAYLELRNLRSDDTAVYYCTRDTQERSWYFDVWGQGTLVTVSSDIVMTQSPATLSVSPGERATLSCRSSQSLVHSNGNTYLHWYQQKPGQAPRLLIYKVSNRFSGVPARFSGSGSGVEFTLTISSLQSEDFAVYYCSQSTHVPWTFGQGTRLEIK
modifications: CAR, Humanised CD22ALAb scFv sequence
For B2, which “binding affinity to CD22” value (CD22 [3]) is on record?
Its value is “comparable binding affinity to CD22 to murine CD22ALAb; also recorded: significantly higher binding affinity to CD22 than the gold-standard CD22-binding antibody, M971”.

B3: murine CD22ALAb: Murine CD22ALAb scFv, SEQ ID No. 25 (protein)
scFv: QVQLQQPGAELVRPGASVKLSCKASGYTFTNYWINWVKQRPGQGLEWIGNIYPSDSFTNYNQKFKDKATLTVDKSSSTAYMQLSSPTSEDSAVYYCTRDTQERSWYFDVWGAGTTVTVSSDVVMTQTPLSLPVSLGDQASISCRSSQSLVHSNGNTYLHWYLQKPGQSPKLLIYKVSNRFSGVPDRFSGSGSGTDFTLKISRVEAEDLGLYFCSQSTHVPWTFGGGTKLEIK
modifications: CAR, Murine CD22ALAb scFv sequence
Which “binding affinity to CD22” value (CD22 [3]) does the source give for B3 here?
Its value is “significantly higher binding affinity to CD22 than the gold-standard CD22-binding antibody, M971”.

B4: Murine CD19ALAb scFv (scFv, part only; not given: Fc part and VH-VL linker, not shown: another chain or arm of the molecule; a dimerising Fc or GST; small tags and cut ends)
scFv: QVQLQQSGAELVRPGSSVKISCKASGYAFSSYWMNWVKQRPGQGLEWIGQIWPGDGDTNYNGKFKGKATLTADESSSTAYMQLSSLASEDSAVYFCARRETTTVGRYYYAMDYWGQGTTVTVSSDIQLTQSPASLAVSLGQRATISCKASQSVDYDGDSYLNWYQQIPGQPPKLLIYDASNLVSGIPPRFSGSGSGTDFTLNIHPVEKVDAATYHCQQSTEDPWTFGGGTKLEIK
Which results are given for B4?
Kd (CD19 (human)): 1.85 nM; koff (CD19 (human)): 0.000328 s⁻¹; kon (CD19 (human)): 178000 M⁻¹ s⁻¹

Source: patent publication US20190330337A1, “Tunable Chimeric Antigen Receptors” (AUTOLUS LIMITED, priority 2016, published 2019)
